Experimental data: the Human Domainome abundance scans (Beltran et al. 2025)
± gives the uncertainty stated by the source.

B1: Ventral anterior homeobox 1, residues 102 to 157; numbered along this chain, Q5SQQ9 (parent)
chain: RTRTSFTAEQLYRLEMEFQRCQYVVGRERTELARQLNLSETQVKVWFQNRRTKQKK

Variants of: B1
Assay: abundance fitness (aPCA) (normalised: wild type 0, dead -1); higher = more abundant; growth selection in yeast, the domain comes from the species named
Settings: Homo sapiens

Abundance fitness, by site and new letter:
R34: Q -0.361 ± 0.3, S -0.061 ± 0.17, V -0.074 ± 0.12, W -0.42 ± 0.33, Y -0.655 ± 0.41
Q35: A 0.052 ± 0.13, C -0.08 ± 0.14, D -0.005 ± 0.19, E -0.032 ± 0.17, F -0.292 ± 0.21, G -0.182 ± 0.1, H -0.167 ± 0.26, I -0.236 ± 0.2, K 0.093 ± 0.18, L -0.135 ± 0.14, M -0.087 ± 0.15, N -0.206 ± 0.24, R -0.028 ± 0.11, S 0.037 ± 0.12, T -0.205 ± 0.23, V -0.265 ± 0.13, W -0.304 ± 0.17, Y -0.414 ± 0.2
L36: A -0.601 ± 0.12, C -0.165 ± 0.16, D -0.643 ± 0.3, E -0.983 ± 0.26, F -0.741 ± 0.21, G -0.916 ± 0.12, H -0.569 ± 0.22, K -1.18 ± 0.42, M -0.184 ± 0.18, N -0.935 ± 0.43, P -0.711 ± 0.22, Q -0.545 ± 0.18, R -0.881 ± 0.13, S -0.687 ± 0.13, T -0.264 ± 0.17, V -0.173 ± 0.089, W -0.696 ± 0.15, Y -0.858 ± 0.23
N37: A -0.211 ± 0.23, C -0.037 ± 0.21, D -0.049 ± 0.2, E -0.033 ± 0.26, F -0.183 ± 0.42, G -0.04 ± 0.12, K -0.092 ± 0.22, L -0.307 ± 0.18, M -0.536 ± 0.4, Q 0.06 ± 0.27, R -0.134 ± 0.12, S -0.239 ± 0.19, T -0.254 ± 0.39, V -0.464 ± 0.29, W -0.605 ± 0.2
L38: A -0.253 ± 0.11, C -0.186 ± 0.16, D -0.818 ± 0.24, F -0.72 ± 0.39, G -0.822 ± 0.11, H -0.854 ± 0.43, I -0.307 ± 0.33, K -0.773 ± 0.24, M -0.112 ± 0.15, P -1.02 ± 0.25, Q -0.91 ± 0.2, R -0.576 ± 0.11, S -0.321 ± 0.14, T -0.411 ± 0.16, V 0.027 ± 0.094, W -0.861 ± 0.17
S39: C -0.266 ± 0.16, D 0.264 ± 0.18, E -0.115 ± 0.18, F -0.435 ± 0.19, G -0.375 ± 0.11, H -0.334 ± 0.17, I -1.08 ± 0.44, K -0.25 ± 0.2, L -0.591 ± 0.15, M -0.595 ± 0.2, N 0.063 ± 0.25, P 0.033 ± 0.19, Q -0.313 ± 0.15, R -0.417 ± 0.11, T -0.218 ± 0.17, V -0.488 ± 0.16, W -0.959 ± 0.24, Y -0.649 ± 0.34
E40: A -0.215 ± 0.16, C -0.226 ± 0.22, D -0.128 ± 0.16, G -0.413 ± 0.098, H -1.01 ± 0.38, I -0.557 ± 0.26, K -0.676 ± 0.35, L -0.711 ± 0.15, M -0.852 ± 0.25, P -0.318 ± 0.17, Q -0.507 ± 0.19, R -0.57 ± 0.12, S -0.283 ± 0.14, V -0.315 ± 0.12, W -0.736 ± 0.22, Y -0.712 ± 0.41
T41: A 0.032 ± 0.12, C 0.164 ± 0.17, D 0.105 ± 0.18, E 0.106 ± 0.13, F -0.129 ± 0.19, G 0.03 ± 0.096, H -0.027 ± 0.19, I -0.5 ± 0.3, K -0.381 ± 0.18, L 0.024 ± 0.11, M 0.095 ± 0.16, N -0.127 ± 0.35, P -0.152 ± 0.16, Q 0.227 ± 0.19, R -0.336 ± 0.1, S 0.006 ± 0.12, V -0.104 ± 0.1, W -0.12 ± 0.12, Y -0.2 ± 0.19
Q42: A 0.021 ± 0.12, C -0.563 ± 0.49, D 0.028 ± 0.33, E 0.183 ± 0.16, F -0.266 ± 0.45, G -0.603 ± 0.13, I 0.007 ± 0.2, K -0.473 ± 0.3, L -0.137 ± 0.15, M -0.252 ± 0.19, N -0.257 ± 0.31, P -0.824 ± 0.37, R -0.223 ± 0.11, S -0.364 ± 0.22, T 0.163 ± 0.19, V -0.153 ± 0.12, W -0.397 ± 0.23, Y 0.053 ± 0.5
V43: A -0.679 ± 0.28, C -0.508 ± 0.23, D -0.691 ± 0.37, F -0.765 ± 0.32, L -0.166 ± 0.14, M -0.838 ± 0.4, P -0.723 ± 0.33, Q -0.817 ± 0.43, R -0.793 ± 0.18, S -0.561 ± 0.22, W -0.871 ± 0.23
K44: A 0.038 ± 0.12, C -0.069 ± 0.16, D 0.129 ± 0.23, E 0.048 ± 0.15, F -0.464 ± 0.31, G -0.049 ± 0.11, H -0.26 ± 0.24, L -0.175 ± 0.12, M -0.079 ± 0.14, N 0.002 ± 0.16, P -0.94 ± 0.22, Q -0.091 ± 0.14, R -0.22 ± 0.086, S 0.106 ± 0.13, V -0.032 ± 0.11, W -0.167 ± 0.12, Y -0.271 ± 0.2
V45: A 0.02 ± 0.11, D 0.185 ± 0.16, F -0.03 ± 0.26, G -0.159 ± 0.084, H -0.021 ± 0.21, I -0.3 ± 0.22, K -0.258 ± 0.18, L 0.083 ± 0.13, M -0.148 ± 0.27, N -0.248 ± 0.27, P -0.545 ± 0.22, Q -0.061 ± 0.18, R -0.156 ± 0.095, S 0.158 ± 0.12, T 0.126 ± 0.16, W 0.015 ± 0.1, Y -0.046 ± 0.21
W46: C -0.909 ± 0.32, F -0.406 ± 0.37, G -0.778 ± 0.14, I -0.807 ± 0.4, K -1.11 ± 0.45, L -0.717 ± 0.2, M -0.919 ± 0.33, Q -0.958 ± 0.28, R -0.844 ± 0.14, S -0.627 ± 0.23, T -0.922 ± 0.3, V -0.63 ± 0.19
F47: A -1.02 ± 0.17, C -0.743 ± 0.29, D -0.674 ± 0.23, E -1.04 ± 0.3, G -0.976 ± 0.14, H -0.754 ± 0.35, I -0.663 ± 0.29, K -0.885 ± 0.39, M -0.228 ± 0.17, P -0.836 ± 0.25, Q -0.767 ± 0.25, R -0.873 ± 0.18, S -0.762 ± 0.21, T -0.792 ± 0.24, V -0.787 ± 0.17, W -0.651 ± 0.25, Y -0.376 ± 0.34
Q48: A -0.167 ± 0.2, C -0.051 ± 0.29, D -0.11 ± 0.44, E -0.193 ± 0.31, G -0.314 ± 0.15, H -0.505 ± 0.39, I -0.284 ± 0.46, K 0.142 ± 0.45, L -0.051 ± 0.2, M -0.122 ± 0.3, R -0.172 ± 0.15, S -0.111 ± 0.16, T -0.076 ± 0.26, V -0.115 ± 0.18, W -0.619 ± 0.27, Y -0.298 ± 0.28
N49: C -0.283 ± 0.25, D -0.019 ± 0.32, E 0.297 ± 0.15, F -0.609 ± 0.48, G -0.047 ± 0.1, H -0.358 ± 0.27, I -0.069 ± 0.27, K -0.022 ± 0.18, L -0.046 ± 0.12, M -0.442 ± 0.2, P -0.929 ± 0.31, Q -0.038 ± 0.21, R -0.26 ± 0.11, S -0.277 ± 0.14, T 0.072 ± 0.18, V -0.1 ± 0.12
R50: A -0.163 ± 0.13, E 0.009 ± 0.19, G -0.832 ± 0.13, H -0.624 ± 0.43, I -1.09 ± 0.44, K -0.041 ± 0.17, L -0.925 ± 0.2, M -0.034 ± 0.16, N -0.424 ± 0.35, P -1.02 ± 0.29, Q -0.098 ± 0.17, S -0.451 ± 0.12, T -0.392 ± 0.16, V -0.943 ± 0.18, W -0.929 ± 0.2, Y -0.285 ± 0.27
R51: A -0.325 ± 0.12, C -0.08 ± 0.17, D -0.14 ± 0.22, E -0.309 ± 0.19, F -0.2 ± 0.25, G -0.16 ± 0.1, H -0.038 ± 0.18, I 0.068 ± 0.26, K -0.365 ± 0.32, M -0.333 ± 0.25, N -0.117 ± 0.35, Q 0.049 ± 0.24, S -0.201 ± 0.13, V -0.319 ± 0.12, W -0.243 ± 0.14, Y -0.091 ± 0.21
T52: A -0.11 ± 0.12, C -0.165 ± 0.17, D 0.154 ± 0.19, E 0.139 ± 0.16, F -0.285 ± 0.17, G 0.137 ± 0.09, H -0.279 ± 0.23, I -0.358 ± 0.17, K 0.091 ± 0.16, L -0.141 ± 0.1, M 0.194 ± 0.18, N -0.037 ± 0.25, P -0.558 ± 0.19, Q -0.145 ± 0.15, R -0.249 ± 0.098, V -0.014 ± 0.1, W -0.316 ± 0.14, Y -0.137 ± 0.3
K53: A 0.044 ± 0.12, C 0.202 ± 0.18, D 0.209 ± 0.19, E 0.186 ± 0.16, F 0.174 ± 0.26, G -0.037 ± 0.096, H -0.226 ± 0.32, I -0.02 ± 0.28, L 0.183 ± 0.13, M -0.103 ± 0.19, N 0.199 ± 0.33, Q 0.115 ± 0.19, R -0.088 ± 0.09, S 0.161 ± 0.17, T 0.197 ± 0.16, V 0.137 ± 0.12, W -0.04 ± 0.14, Y 0.292 ± 0.43
Q54: A 0.018 ± 0.09, C -0.252 ± 0.2, E 0.11 ± 0.12, F -0.284 ± 0.18, G 0.005 ± 0.076, H -0.149 ± 0.18, I -0.191 ± 0.32, K 0.144 ± 0.27, L -0.045 ± 0.088, N -0.202 ± 0.3, P 0.013 ± 0.12, R -0.237 ± 0.084, S -0.125 ± 0.1, T -0.332 ± 0.22, V -0.017 ± 0.088, W -0.187 ± 0.11, Y -0.317 ± 0.39
